B1: 1.1.36-1 (antibody, human IgG1, kappa)
heavy: QVQLLQSGAAVTKPGASVRVSCEASGYNIRDYFIHWWRQAPGQGLQWVGWINPKTGQPNNPRQFQGRVSLTRHASWDFDTFSFYMDLKALRSDDTAVYFCARQRSDYWDFDVWGSGTQVTVSSASTKGPSVFPLAPSSKSTSGGTAALGCLVKDYFPEPVTVSWNSGALTSGVHTFPAVLQSSGLYSLSSVVTVPSSSLGTQTYICNVNHKPSNTKVDKKVEPKSCDKTHTCPPCPAPELLAGPDVFLFPPKPKDTLMISRTPEVTCVVVDVSHEDPEVKFNWYVDGVEVHNAKTKPREEQYNSTYRVVSVLTVLHQDWLNGKEYKCKVSNKALPLPEEKTISKAKGQPREPQVYTLPPSREEMTKNQVSLTCLVKGFYPSDIAVEWESNGQPENNYKTTPPVLDSDGSFFLYSKLTVDKSRWQQGNVFSCSVLHEALHSHYTQKSLSLSPGK
light: DIQMTQSPSSLSASVGDRVTITCQANGYLNWYQQKPGKAPKLLIYDGSNLETGVPSRFSGSRWGQEYTLTISSLQPEDIATYFCQVYEFVTPGTNLDIKRTVAAPSVFIFPPSDEQLKSGTASVVCLLNNFYPREAKVQWKVDNALQSGNSQESVTEQDSKDSTYSLSSTLTLSKADYEKHKVYACEVTHQGLSSPVTKSFNRGEC
B2: 1.8.1-1 (antibody, human IgG1, kappa)
heavy: QVQLVQSGAEVTKPGASVRVSCEASGYNIRDYFIHWWRQAPGQGLQWVGWINPKTGQPNNPRQFQGRVSLTRHASWDFDTFSFYMDLKALRSDDTAVYFCARQRSDYWDFDVWGSGTQVTVSSASTKGPSVFPLAPSSKSTSGGTAALGCLVKDYFPEPVTVSWNSGALTSGVHTFPAVLQSSGLYSLSSVVTVPSSSLGTQTYICNVNHKPSNTKVDKKVEPKSCDKTHTCPPCPAPELLAGPDVFLFPPKPKDTLMISRTPEVTCVVVDVSHEDPEVKFNWYVDGVEVHNAKTKPREEQYNSTYRVVSVLTVLHQDWLNGKEYKCKVSNKALPLPEEKTISKAKGQPREPQVYTLPPSREEMTKNQVSLTCLVKGFYPSDIAVEWESNGQPENNYKTTPPVLDSDGSFFLYSKLTVDKSRWQQGNVFSCSVLHEALHSHYTQKSLSLSPGK
light: DIQMTQSPSSLSASVGDTVTITCQANGYLNWYQQRRGKAPKLLIYDGSKLERGVPSRFSGRRWGQEYNLTINNLQPEDIATYFCQVYEFVVPGTRLDLKRTVAAPSVFIFPPSDEQLKSGTASVVCLLNNFYPREAKVQWKVDNALQSGNSQESVTEQDSKDSTYSLSSTLTLSKADYEKHKVYACEVTHQGLSSPVTKSFNRGEC
B3: 1.5.1-1 (antibody, human IgG1, kappa)
heavy: QVQLVQSGAAVTKPGASVRVSCKASGYNIRDYFIHWWRQAPGQGLQWVGWINPKTGQPNNPRQFQGRVSLTRHASWDFDTFSFYMDLKALRSDDTAVYFCARQRSDYWDFDVWGSGTQVTVSSASTKGPSVFPLAPSSKSTSGGTAALGCLVKDYFPEPVTVSWNSGALTSGVHTFPAVLQSSGLYSLSSVVTVPSSSLGTQTYICNVNHKPSNTKVDKKVEPKSCDKTHTCPPCPAPELLAGPDVFLFPPKPKDTLMISRTPEVTCVVVDVSHEDPEVKFNWYVDGVEVHNAKTKPREEQYNSTYRVVSVLTVLHQDWLNGKEYKCKVSNKALPLPEEKTISKAKGQPREPQVYTLPPSREEMTKNQVSLTCLVKGFYPSDIAVEWESNGQPENNYKTTPPVLDSDGSFFLYSKLTVDKSRWQQGNVFSCSVLHEALHSHYTQKSLSLSPGK
light: DIQMTQSPSSLSASVGDTVTITCQANGYLNWYQQRRGKAPKLLIYDGSKLERGVPSRFSGRRWGQEYNLTINNLQPEDIATYFCQVYEFVVPGTRLDLKRTVAAPSVFIFPPSDEQLKSGTASVVCLLNNFYPREAKVQWKVDNALQSGNSQESVTEQDSKDSTYSLSSTLTLSKADYEKHKVYACEVTHQGLSSPVTKSFNRGEC
B4: 1.3.1-1 (antibody, human IgG1, kappa)
heavy: QVSLLQSGAAVTKPGASVRVSCEASGYNIRDYFIHWWRQAPGQGLQWVGWINPKTGQPNNPRQFQGRVSLTRHASWDFDTFSFYMDLKALRSDDTAVYFCARQRSDYWDFDVWGSGTQVTVSSASTKGPSVFPLAPSSKSTSGGTAALGCLVKDYFPEPVTVSWNSGALTSGVHTFPAVLQSSGLYSLSSVVTVPSSSLGTQTYICNVNHKPSNTKVDKKVEPKSCDKTHTCPPCPAPELLAGPDVFLFPPKPKDTLMISRTPEVTCVVVDVSHEDPEVKFNWYVDGVEVHNAKTKPREEQYNSTYRVVSVLTVLHQDWLNGKEYKCKVSNKALPLPEEKTISKAKGQPREPQVYTLPPSREEMTKNQVSLTCLVKGFYPSDIAVEWESNGQPENNYKTTPPVLDSDGSFFLYSKLTVDKSRWQQGNVFSCSVLHEALHSHYTQKSLSLSPGK
light: DIQMTQSPSSLSASVGDTVTITCQANGYLNWYQQRRGKAPKLLIYDGSKLERGVPSRFSGRRWGQEYNLTINNLQPEDIATYFCQVYEFVVPGTRLDLKRTVAAPSVFIFPPSDEQLKSGTASVVCLLNNFYPREAKVQWKVDNALQSGNSQESVTEQDSKDSTYSLSSTLTLSKADYEKHKVYACEVTHQGLSSPVTKSFNRGEC
B5: 1.2.1-1 (antibody, human IgG1, kappa)
heavy: QVQLLQSGAEVKKPGASVRVSCEASGYNIRDYFIHWWRQAPGQGLQWVGWINPKTGQPNNPRQFQGRVSLTRHASWDFDTFSFYMDLKALRSDDTAVYFCARQRSDYWDFDVWGSGTMVTVSSASTKGPSVFPLAPSSKSTSGGTAALGCLVKDYFPEPVTVSWNSGALTSGVHTFPAVLQSSGLYSLSSVVTVPSSSLGTQTYICNVNHKPSNTKVDKKVEPKSCDKTHTCPPCPAPELLAGPDVFLFPPKPKDTLMISRTPEVTCVVVDVSHEDPEVKFNWYVDGVEVHNAKTKPREEQYNSTYRVVSVLTVLHQDWLNGKEYKCKVSNKALPLPEEKTISKAKGQPREPQVYTLPPSREEMTKNQVSLTCLVKGFYPSDIAVEWESNGQPENNYKTTPPVLDSDGSFFLYSKLTVDKSRWQQGNVFSCSVLHEALHSHYTQKSLSLSPGK
light: DIQMTQSPSSLSASVGDTVTITCQANGYLNWYQQRRGKAPKLLIYDGSKLERGVPSRFSGRRWGQEYNLTINNLQPEDIATYFCQVYEFVVPGTRLDLKRTVAAPSVFIFPPSDEQLKSGTASVVCLLNNFYPREAKVQWKVDNALQSGNSQESVTEQDSKDSTYSLSSTLTLSKADYEKHKVYACEVTHQGLSSPVTKSFNRGEC
B6: 1.7.1-1 (antibody, human IgG1, kappa)
heavy: QVQLLQSGAEVKKPGASVRVSCEASGYNIRDYFIHWWRQAPGQGLQWVGWINPKTGQPNNPRQFQGRVSLTRHASWDFDTFSFYMDLKALRSDDTAVYFCARQRSDYWDFDVWGSGTQVTVSSASTKGPSVFPLAPSSKSTSGGTAALGCLVKDYFPEPVTVSWNSGALTSGVHTFPAVLQSSGLYSLSSVVTVPSSSLGTQTYICNVNHKPSNTKVDKKVEPKSCDKTHTCPPCPAPELLAGPDVFLFPPKPKDTLMISRTPEVTCVVVDVSHEDPEVKFNWYVDGVEVHNAKTKPREEQYNSTYRVVSVLTVLHQDWLNGKEYKCKVSNKALPLPEEKTISKAKGQPREPQVYTLPPSREEMTKNQVSLTCLVKGFYPSDIAVEWESNGQPENNYKTTPPVLDSDGSFFLYSKLTVDKSRWQQGNVFSCSVLHEALHSHYTQKSLSLSPGK
light: DIQMTQSPSSLSASVGDTVTITCQANGYLNWYQQRRGKAPKLLIYDGSKLERGVPSRFSGRRWGQEYNLTINNLQPEDIATYFCQVYEFVVPGTRLDLKRTVAAPSVFIFPPSDEQLKSGTASVVCLLNNFYPREAKVQWKVDNALQSGNSQESVTEQDSKDSTYSLSSTLTLSKADYEKHKVYACEVTHQGLSSPVTKSFNRGEC
B7: 1.6.1-1 (antibody, human IgG1, kappa)
heavy: QVQLLQSGAEVTKPGASVRVSCEASGYNIRDYFIHWWRQAPGQGLQWVGWINPKTGQPNNPRQFQGRVSLTRHASWDFDTFSFYMDLKALRSDDTAVYFCARQRSDYWDFDVWGSGTQVTVSSASTKGPSVFPLAPSSKSTSGGTAALGCLVKDYFPEPVTVSWNSGALTSGVHTFPAVLQSSGLYSLSSVVTVPSSSLGTQTYICNVNHKPSNTKVDKKVEPKSCDKTHTCPPCPAPELLAGPDVFLFPPKPKDTLMISRTPEVTCVVVDVSHEDPEVKFNWYVDGVEVHNAKTKPREEQYNSTYRVVSVLTVLHQDWLNGKEYKCKVSNKALPLPEEKTISKAKGQPREPQVYTLPPSREEMTKNQVSLTCLVKGFYPSDIAVEWESNGQPENNYKTTPPVLDSDGSFFLYSKLTVDKSRWQQGNVFSCSVLHEALHSHYTQKSLSLSPGK
light: DIQMTQSPSSLSASVGDTVTITCQANGYLNWYQQRRGKAPKLLIYDGSKLERGVPSRFSGRRWGQEYNLTINNLQPEDIATYFCQVYEFVVPGTRLDLKRTVAAPSVFIFPPSDEQLKSGTASVVCLLNNFYPREAKVQWKVDNALQSGNSQESVTEQDSKDSTYSLSSTLTLSKADYEKHKVYACEVTHQGLSSPVTKSFNRGEC
B8: 1.4.1-1 (antibody, human IgG1, kappa)
heavy: QVQLVQSGAAVTKPGASVRVSCEASGYNIRDYFIHWWRQAPGQGLQWVGWINPKTGQPNNPRQFQGRVSLTRHASWDFDTFSFYMDLKALRSDDTAVYFCARQRSDYWDFDVWGSGTQVTVSSASTKGPSVFPLAPSSKSTSGGTAALGCLVKDYFPEPVTVSWNSGALTSGVHTFPAVLQSSGLYSLSSVVTVPSSSLGTQTYICNVNHKPSNTKVDKKVEPKSCDKTHTCPPCPAPELLAGPDVFLFPPKPKDTLMISRTPEVTCVVVDVSHEDPEVKFNWYVDGVEVHNAKTKPREEQYNSTYRVVSVLTVLHQDWLNGKEYKCKVSNKALPLPEEKTISKAKGQPREPQVYTLPPSREEMTKNQVSLTCLVKGFYPSDIAVEWESNGQPENNYKTTPPVLDSDGSFFLYSKLTVDKSRWQQGNVFSCSVLHEALHSHYTQKSLSLSPGK
light: DIQMTQSPSSLSASVGDTVTITCQANGYLNWYQQRRGKAPKLLIYDGSKLERGVPSRFSGRRWGQEYNLTINNLQPEDIATYFCQVYEFVVPGTRLDLKRTVAAPSVFIFPPSDEQLKSGTASVVCLLNNFYPREAKVQWKVDNALQSGNSQESVTEQDSKDSTYSLSSTLTLSKADYEKHKVYACEVTHQGLSSPVTKSFNRGEC

Key:
BSA = BSA (UniProt P02769 25-607); assay: single-point ELISA, BSA control
gp120 Bal = gp120 Bal (HIV (Bal)); assay: single-point ELISA at EC50 conc. of A-1
gp120 CAAN = gp120 CAAN (HIV (CAAN)); assay: single-point ELISA at EC50 conc. of A-1
gp120 SHIV SF162 P3 = gp120 SHIV SF162 P3 (SHIV SF162 P3); assay: single-point ELISA at EC50 conc. of A-1

Binder	ELISA A450 (BSA) [A450]	ELISA A450 (gp120 Bal) [A450]	ELISA A450 (gp120 CAAN) [A450]	ELISA A450 (gp120 SHIV SF162 P3) [A450]
B1	0.06	0.93	0.88	0.72
B2	0.06	0.86	0.9	0.94
B3	0.06	0.92	1.07	1.15
B4	0.06	0.97	0.94	1.13
B5	0.07	0.93	1.01	1.02
B6	0.06	0.98	1.04	1.08
B7	0.06	0.95	0.9	1.1
B8	0.06	1.04	0.96	1.19

— patent publication US20240034774A1 (Gilead, published 2024)
